According to article PMC4786784 (Nature Communications, 2016):

What was measured:
[1] = target: T1, U2AF65 1,2L FRET (human, UniProt P26368 113-343, A181C;C305A;Q324C); assay: smFRET; slide-tethered protein, 5 uM RNA; Anisotropy: 100 mM NaCl, 15 mM HEPES pH 6.8, 0.2 mM TCEP, 0.1 U/ul Superase-In, 30 nM RNA, 23 C; smFRET: 50 mM HEPES pH 7.4, 100 mM NaCl, room temperature
[2] = target: T2, full-length human U2AF^65 (residues 1–475) (human, UniProt P26368-1 1-475); assay: SEC; U2AF65 combined with slight excess U2AF35-UHM (ratio 1:1.2), dialysed overnight, heterodimer purified on Superdex-200 prep-grade in 150 mM NaCl, 25 mM HEPES pH 6.8, 0.2 mM TCEP; details: both partners purified
T2 construct: U2AF65 (U2AF2), human, full length, residues 1-475; also called flU2AF^65; U2AF2; source: expressed as a GST fusion protein, purified (GST cleavage, SP-HiTrap ion exchange)

[3] = target: flU2AF65;U2AF35-UHM (human;human, UniProt P26368;Q01081 1-475;43-146, |); assay: fluorescence anisotropy; Anisotropy: 100 mM NaCl, 15 mM HEPES pH 6.8, 0.2 mM TCEP, 0.1 U/ul Superase-In, 30 nM RNA, 23 C; smFRET: 50 mM HEPES pH 7.4, 100 mM NaCl, room temperature
[4] = target: T3, U2AF65 1,2L (human, UniProt P26368 141-342); assay: as above
[5] = target: T3, U2AF65 1,2L; assay: as above; remark: listed apart in the source
[6] = target: U2AF65 1,2L 12Gly (human, UniProt P26368 141-342, M144G;L235G;M238G;V244G;V246G;V249G;V250G;S251G;T252G;V253G;V254G;P255G); assay: as above
[7] = target: U2AF65 1,2L R227A (human, UniProt P26368 141-342, R227A); assay: as above
[8] = target: U2AF65 1,2L V254P (human, UniProt P26368 141-342, V254P); assay: as above
[9] = target: dU2AF65 1,2L (human, UniProt P26368 141-342, del238-257); assay: as above
[10] = target: U2AF65 1,2L 3Gly (human, UniProt P26368 141-342, V249G;V250G;V254G); assay: as above
[11] = target: U2AF65 1,2L NLALA (human, UniProt P26368 141-342, S251N;T252L;V253A;V254L;P255A); assay: as above
[12] = target: U2AF65 1,2L 3Mut (human, UniProt P26368 141-342, Q147A;R227A;V254P); assay: as above
[13] = target: dU2AF65 1,2 (human, UniProt P26368 148-336, del238-257); assay: as above
[14] = target: U2AF65 1,2L Q147A (human, UniProt P26368 141-342, Q147A); assay: as above
[15] = target: U2AF65 1,2L 5Gly (human, UniProt P26368 141-342, S251G;T252G;V253G;V254G;P255G); assay: as above
[16] = target: T1, U2AF65 1,2L FRET; assay: smFRET; slide-tethered protein, 10 uM RNA; Anisotropy: 100 mM NaCl, 15 mM HEPES pH 6.8, 0.2 mM TCEP, 0.1 U/ul Superase-In, 30 nM RNA, 23 C; smFRET: 50 mM HEPES pH 7.4, 100 mM NaCl, room temperature

T3 sequence (P26368 141-342, one chain of several): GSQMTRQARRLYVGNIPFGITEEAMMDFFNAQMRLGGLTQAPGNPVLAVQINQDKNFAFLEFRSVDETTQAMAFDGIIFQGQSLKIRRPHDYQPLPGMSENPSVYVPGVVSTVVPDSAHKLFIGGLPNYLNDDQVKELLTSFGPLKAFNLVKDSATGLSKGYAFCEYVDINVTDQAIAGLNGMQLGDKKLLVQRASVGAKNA
Sequence of flU2AF65;U2AF35-UHM (P26368 whole entry, one chain of several): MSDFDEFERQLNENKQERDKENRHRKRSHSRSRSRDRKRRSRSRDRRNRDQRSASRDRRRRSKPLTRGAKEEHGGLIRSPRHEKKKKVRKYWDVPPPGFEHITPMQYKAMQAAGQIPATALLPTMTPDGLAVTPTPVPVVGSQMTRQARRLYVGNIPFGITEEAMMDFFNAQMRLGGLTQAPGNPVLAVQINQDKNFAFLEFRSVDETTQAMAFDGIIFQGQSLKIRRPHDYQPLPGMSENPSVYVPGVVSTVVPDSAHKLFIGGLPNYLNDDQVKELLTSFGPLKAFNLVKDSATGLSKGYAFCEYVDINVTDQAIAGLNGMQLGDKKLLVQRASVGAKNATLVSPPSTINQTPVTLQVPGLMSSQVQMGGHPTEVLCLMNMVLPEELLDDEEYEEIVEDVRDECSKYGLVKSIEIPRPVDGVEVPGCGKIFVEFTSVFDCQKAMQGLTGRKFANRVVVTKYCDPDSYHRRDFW
T1 sequence (P26368 113-343 A181C/C305A/Q324C, one chain of several): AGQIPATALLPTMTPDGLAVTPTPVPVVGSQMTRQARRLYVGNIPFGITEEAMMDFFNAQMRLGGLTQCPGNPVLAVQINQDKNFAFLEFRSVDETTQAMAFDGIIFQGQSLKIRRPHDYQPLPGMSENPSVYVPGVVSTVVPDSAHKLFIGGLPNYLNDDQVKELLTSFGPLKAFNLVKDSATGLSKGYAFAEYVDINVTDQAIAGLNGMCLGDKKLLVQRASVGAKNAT
Sequence of U2AF65 1,2L Q147A (P26368 141-342 Q147A, one chain of several): as the sequence (P26368 141-342, one chain of several) above, with Q7A counted along it
Sequence of U2AF65 1,2L 3Gly (P26368 141-342 V249G/V250G/V254G, one chain of several): as the sequence (P26368 141-342, one chain of several) above, with V109G, V110G, V114G counted along it
Sequence of U2AF65 1,2L V254P (P26368 141-342 V254P, one chain of several): as the sequence (P26368 141-342, one chain of several) above, with V114P counted along it
Sequence of U2AF65 1,2L 12Gly (P26368 141-342 M144G/L235G/M238G/V244G/V246G/V249G/V250G/S251G/T252G/V253G/V254G/P255G, one chain of several): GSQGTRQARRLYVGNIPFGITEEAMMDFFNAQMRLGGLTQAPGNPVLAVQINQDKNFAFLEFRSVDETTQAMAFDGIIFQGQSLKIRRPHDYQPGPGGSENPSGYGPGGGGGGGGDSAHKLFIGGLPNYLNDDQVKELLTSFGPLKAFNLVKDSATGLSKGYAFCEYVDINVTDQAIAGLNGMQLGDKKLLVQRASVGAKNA
Sequence of U2AF65 1,2L NLALA (P26368 141-342 S251N/T252L/V253A/V254L/P255A, one chain of several): as the sequence (P26368 141-342, one chain of several) above, with S111N, T112L, V113A, V114L, P115A counted along it
Sequence of U2AF65 1,2L R227A (P26368 141-342 R227A, one chain of several): as the sequence (P26368 141-342, one chain of several) above, with R87A counted along it
Sequence of dU2AF65 1,2 (P26368 other isoform, or with tags, fused parts or gaps del238-257): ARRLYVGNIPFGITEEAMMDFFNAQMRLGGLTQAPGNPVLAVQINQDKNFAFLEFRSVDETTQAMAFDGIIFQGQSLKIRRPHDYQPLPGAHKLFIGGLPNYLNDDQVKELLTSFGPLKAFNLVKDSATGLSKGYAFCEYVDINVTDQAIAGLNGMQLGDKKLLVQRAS
Sequence of dU2AF65 1,2L (P26368 other isoform, or with tags, fused parts or gaps del238-257): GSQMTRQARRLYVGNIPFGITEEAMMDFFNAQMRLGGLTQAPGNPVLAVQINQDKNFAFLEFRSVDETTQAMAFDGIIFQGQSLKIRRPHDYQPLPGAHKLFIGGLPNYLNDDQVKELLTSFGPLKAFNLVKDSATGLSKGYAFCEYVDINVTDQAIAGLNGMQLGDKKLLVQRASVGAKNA
T2 sequence (P26368 whole entry, the tested form may be a part): as the sequence (P26368 whole entry, one chain of several) above
Sequence of U2AF65 1,2L 3Mut (P26368 141-342 Q147A/R227A/V254P, one chain of several): as the sequence (P26368 141-342, one chain of several) above, with Q7A, R87A, V114P counted along it
Sequence of U2AF65 1,2L 5Gly (P26368 141-342 S251G/T252G/V253G/V254G/P255G, one chain of several): as the sequence (P26368 141-342, one chain of several) above, with S111G, T112G, V113G, V114G, P115G counted along it

**Q.** Does CCUUUUUUUUCC (ssRNA) [AdML Py tract 12mer] bind [1]?
**A.** Result: binds

B1: U2AF^35-UHM (U2AF homology motif; residues 43–146) (domain or fragment, UniProt Q01081-1 43-146, looked up)
chain: SQTIALLNIYRNPQNSSQSADGLRCAVSDVEMQEHYDEFFEEVFTEMEEKYGEVEEMNVCDNLGDHLVGNVYVKFRREEDAEKAVIDLNNRWFNGQPIHAELSP
notes: also called heterodimerization domain of the U2AF^35 subunit; U2AF1; source: expressed as a GST fusion protein, purified (GST cleavage, Q-HiTrap ion exchange)
**Q.** Does B1 bind [2]?
**A.** Result: binds

**Q.** Which Kd [3] does the source give for CCUUUUCCCCCCC (ssRNA) [5'-4rU] here?
**A.** The Kd was 41 ± 2 nM.

**Q.** And the Kd [4]?
**A.** Its Kd is 31 ± 3 nM.

**Q.** How did the binding signal [5] turn out when CUUUUUAAUUUCC (ssRNA) [AdML Py tract rArA mutant] was run?
**A.** Its binding signal is ~5 fold lower affinity than AdML.

**Q.** CCCCCCCUUUUCC (ssRNA) [3'-4rU] was tested. Which Kd [3] did it give?
**A.** Its Kd is 414 ± 12 nM.

**Q.** What about the Kd [4] of the same binder?
**A.** The Kd was 417 ± 10 nM.

**Q.** Which results are given for CCCUUUUUUUUCC (ssRNA) [AdML Py tract 13mer]?
**A.** Kd [6]: 88 ± 21 nM; Kd [7]: 166 ± 2 nM; Kd [8]: 137 ± 10 nM; Kd [9]: 123 ± 5 nM; Kd [3]: 30 ± 3 nM; Kd [10]: 47 ± 4 nM; Kd [11]: 45 ± 3 nM; Kd [12]: 5630 ± 70 nM; Kd [13]: 5000 ± 100 nM; Kd [14]: 171 ± 21 nM; Kd [15]: 61 ± 3 nM

**Q.** Does CUUUUUAAUUUCCA (ssRNA) [rArA-interrupted Py tract] bind [16]?
**A.** Result: binds
